In patent publication US20260116966A1 (KEYMED BIOSCIENCES CHENGDU, published 2026):
Where a chain is given by its changes, count along the chain named. Each block holds one binder with its values, some of them ahead of it.

Key:
human GPRC5D [1] = biological target: T1, human GPRC5D (human, UniProt Q9NZD1 1-345); experiment: flow cytometry on CHO-hGPRC5D cells
T1 construct: Full length, on stably transfected cells (HEK293-hGPRC5D, CHO-hGPRC5D); Also used here for the endogenous GPRC5D of the GPRC5D+ myeloma lines MM.1R, MM.1S and NCI-H929; also called hGPRC5D; G-protein-coupled receptor family C group 5 member D
Method: (§1) The binding of the antibodies to human and Cynomolgus GPRC5D stably transfected cells was detected by flow cytometry. […] Then, 100 μl/well of the cell suspension was added to a 96-well U-shaped plate, and centrifuged at 300 g for 5 min. The supernatant was discarded. 100 μL per well of serially diluted antibody was added (initial concentration: 200 nM, 3-fold dilution, 12 gradients), and incubated at 4° C. for 45 min. The secondary antibody 50 μL/well of Alexa Fluro647 labeled goat anti-human IgG Fc (1:300 dilution) was added, incubated on ice for 45 min, and detected by flow cytometry.

Cynomolgus GPRC5D = biological target: T2, Cynomolgus GPRC5D (Cynomolgus, UniProt Q9NZD1 1-343 (human entry)); experiment: flow cytometry on CHO-cyGPRC5D cells
T2 construct: Full length, on stably transfected cells (HEK293-cyGPRC5D, CHO-cyGPRC5D); also called cyGPRC5D
T2 chain: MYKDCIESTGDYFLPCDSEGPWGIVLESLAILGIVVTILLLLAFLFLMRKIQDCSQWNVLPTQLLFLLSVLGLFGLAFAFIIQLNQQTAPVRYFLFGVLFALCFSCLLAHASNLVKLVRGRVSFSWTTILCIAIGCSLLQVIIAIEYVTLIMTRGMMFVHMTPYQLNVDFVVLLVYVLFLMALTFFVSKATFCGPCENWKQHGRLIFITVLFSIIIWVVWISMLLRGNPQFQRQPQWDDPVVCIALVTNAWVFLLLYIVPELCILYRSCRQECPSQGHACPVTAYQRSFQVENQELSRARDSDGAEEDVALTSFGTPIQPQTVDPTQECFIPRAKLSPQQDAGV
Method: as §1

human GPRC5D [2] = biological target: T1, human GPRC5D; experiment: flow cytometry, MM.1R cells
Method: The cell suspension was adjusted to a concentration of 5×10⁵ cells/mL, and 100 μL per well was added to a 96-well U-shaped plate, centrifuged at 300 g for 5 min. The supernatant was discarded. 100 μL per well of serially diluted antibody was added (initial concentration: 200 nM, 3-fold dilution, 10 gradients), and incubated at 4° C. for 60 min. The primary antibody was washed away, and 50 μL/well Alexa Fluro647 labeled goat anti-human IgG FC (1:300 dilution) was added, and incubated for 20 min. After washing once, 50 μL/well of PI was added, incubated for 5 min, and detected by flow cytometry.

human GPRC5D [3] = biological target: T1, human GPRC5D; experiment: cell-based or functional assay

T1 sequence (Q9NZD1 whole entry): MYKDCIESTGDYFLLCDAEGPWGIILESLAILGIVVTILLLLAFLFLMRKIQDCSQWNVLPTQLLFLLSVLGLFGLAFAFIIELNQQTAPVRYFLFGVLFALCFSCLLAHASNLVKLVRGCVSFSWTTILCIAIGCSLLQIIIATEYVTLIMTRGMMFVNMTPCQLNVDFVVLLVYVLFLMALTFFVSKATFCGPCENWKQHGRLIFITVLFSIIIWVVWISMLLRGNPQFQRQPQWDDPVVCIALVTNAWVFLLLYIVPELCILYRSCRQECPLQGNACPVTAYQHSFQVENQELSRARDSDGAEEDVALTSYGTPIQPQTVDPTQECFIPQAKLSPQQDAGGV

- EC50 (read off the curve) (human GPRC5D [1]): ~0.1 nM
- binding result (Cynomolgus GPRC5D): binds
B1: anti-GPRC5D chimeric antibody 15D1 (antibody, V domains shown)
VH: EVQLQQSGPELGKPGASVKMSCKASGYTFTNYVMHWVKQKPGQGLEWIGYINPYNDGTKYNEKFKGKATLTSDKSSNTAYMELSSLTSEDSAVYYCARGGVRRYFDYWGQGTTLTVSS
VL: DIQMTQSPSSLSASLGERVSLTCRASQDIGSNLNWLQQEPDGTIKRLIYATSSLDSGVPKRFSGSRSGSDYSLTISSLESEDFVDYYCLQYASFPYTFGGGTKLEIK

- binding result (human GPRC5D [1]): binds
- EC50 (read off the curve) (Cynomolgus GPRC5D): ~0.4 nM
B2: anti-GPRC5D chimeric antibody 8D1 (antibody, V domains shown)
VH: QVQLQQPGAELVKPGASVKLSCKASGYTFTSYYMYWVKQRPGQGLEWIGGINPSNGGTKYNEKFKSKATLTVDKSSSTAFMQLSSLTSEDSAVYYCTRGSLRSYYYAMDYWGQGTSVTVSS
VL: DIQMTQTTSSLSASLGDRVTISCRASQDISNYLNWYQQKPDGTVKLLIYYTSRLHSGVPSRFSGSGSGTDYSLTISNLEQEDLATYFCQQGYSLPYTFGGGTKLEIK

- EC50 (human GPRC5D [2]): 1.51 nM
- Maximum fluorescence intensity (MFI, 200 nM) (human GPRC5D [2]): 94600 MFI
- TDCC EC50 (pM), MM.1R (human GPRC5D [3]): 0.65 pM
B3: 2F1 × CD3 GPRC5D×CD3 κλ bispecific antibody (bispecific antibody, human IgG4 S228P, kappa, lambda)
heavy 1: QVQLVQSGAEVKKPGSSVKVSCKASGYSFTGYTMNWVREAPGQGLEWMGLINPYNGGTRYNQKFQGRVTLTVDKSSSTAYMELSSLRSEDTAVYYCARWALRYGMDYWGQGTLVTVSSASTKGPSVFPLAPCSRSTSESTAALGCLVKDYFPEPVTVSWNSGALTSGVHTFPAVLQSSGLYSLSSVVTVPSSSLGTKTYTCNVDHKPSNTKVDKRVESKYGPPCPPCPAPEFEGGPSVFLFPPKPKDTLMISRTPEVTCVVVDVSQEDPEVQFNWYVDGVEVHNAKTKPREEQFNSTYRVVSVLTVLHQDWLNGKEYKCKVSNKGLASSIEKTISKAKGQPREPQVCTLPPSQEEMTKNQVSLSCAVKGFYPSDIAVEWESNGQPENNYKTTPPVLDSDGSFFLVSKLTVDKSRWQEGNVFSCSVMHEALHNHYTQKSLSLSLGK
light 1: DIQMTQSPSSLSASVGDRVTITCRASQNVGTNVAWYQKKPGKAPKALIYSASYRNSGVPSRFSGSGSGTDFTLTISSLQPEDFATYFCQQYNSYLLTFGGGTKVEIKRTVAAPSVFIFPPSDEQLKSGTASVVCLLNNFYPREAKVQWKVDNALQSGNSQESVTEQDSKDSTYSLSSTLTLSKADYEKHKVYACEVTHQGLSSPVTKSFNRGEC
heavy 2: EVQLVESGGGLVQPGGSLRLSCAASGFTFNTYAMNWVRKAPGKGLEWVGRIRSKYNNYATYYADSVKDRFTISRDDSKNSLYLQMNSLKTEDTAVYYCVRHGNFGNSYVSWFAYWGQGTLVTVSSASTKGPSVFPLAPCSRSTSESTAALGCLVKDYFPEPVTVSWNSGALTSGVHTFPAVLQSSGLYSLSSVVTVPSSSLGTKTYTCNVDHKPSNTKVDKRVESKYGPPCPPCPAPEFEGGPSVFLFPPKPKDTLMISRTPEVTCVVVDVSQEDPEVQFNWYVDGVEVHNAKTKPREEQFNSTYRVVSVLTVLHQDWLNGKEYKCKVSNKGLASSIEKTISKAKGQPREPQVYTLPPCQEEMTKNQVSLWCLVKGFYPSDIAVEWESNGQPENNYKTTPPVLDSDGSFFLYSKLTVDKSRWQEGNVFSCSVMHEALHNHYTQKSLSLSLGK
light 2: QAVVTQEPSLTVSPGGTVTLTCRSSTGAVTTSNYANWVQEKPGQAPRGLIGGTNKRAPWTPARFSGSLLGGKAALTITGAQAEDEAEYYCVLWYSNLWVFGGGTKLTVLGQPKAAPSVTLFPPSSEELQANKATLVCLISDFYPGAVTVAWKADSSPVKAGVETTTPSKQSNNKYAASSYLSLTPEQWKSHRSYSCQVTHEGSTVEKTVAPTECS
notes: Human IgG4 knob-into-hole, Ser228Pro, Leu235Glu, Pro329Ala; also called parent 2F1×CD3 bispecific antibody

- EC50 (human GPRC5D [2]): 3.35 nM
- Maximum fluorescence intensity (MFI, 200 nM) (human GPRC5D [2]): 70900 MFI
- TDCC EC50 (pM), MM.1R (human GPRC5D [3]): 6.95 pM
B4: 4B1 × CD3 GPRC5D×CD3 κλ bispecific antibody (bispecific antibody, human IgG4, V domains shown)
VH 1: QAQLVQSGAEVKKPGSSVKVSCKASGYTFTSYNMHWVREAPGQGLEWMGYIYPGNGGTNYNQKFQGRVTLTADTSSSTAYMELSSLRSEDTAVYFCARGYGYRYWYFDVWGQGTLVTVSS
VL 1: EIVLTQSPATLSLSPGERATLSCRASSSVSYMHWYQKKPGQAPRRLIYDTSKLASGIPARFSGSGSGTDYTLTISSLEPEDFAVYYCQQWSNYPPTFGGGTKVEIK
VH 2: EVQLVESGGGLVQPGGSLRLSCAASGFTFNTYAMNWVRKAPGKGLEWVGRIRSKYNNYATYYADSVKDRFTISRDDSKNSLYLQMNSLKTEDTAVYYCVRHGNFGNSYVSWFAYWGQGTLVTVSS
VL 2: QAVVTQEPSLTVSPGGTVTLTCRSSTGAVTTSNYANWVQEKPGQAPRGLIGGTNKRAPWTPARFSGSLLGGKAALTITGAQAEDEAEYYCVLWYSNLWVFGGGTKLTVL
notes: Human IgG4 knob-into-hole Fc with Ser228Pro, Leu235Glu, Pro329Ala

- EC50 (human GPRC5D [2]): 3.34 nM
- Maximum fluorescence intensity (MFI, 200 nM) (human GPRC5D [2]): 89000 MFI
- TDCC EC50 (pM), MM.1R (human GPRC5D [3]): 32.9 pM
B5: 8D1 × CD3 GPRC5D×CD3 κλ bispecific antibody (bispecific antibody, human IgG4, V domains shown)
VH 1: QVQLVQSGAEVKKPGSSVKVSCKASGYTFTSYYMYWVREAPGQGLEWMGGINPSNGGTKYNEKFQGRVTLTVDKSSSTAYMELSSLRSEDTAVYYCTRGSLRSYYYAMDYWGQGTLVTVSS
VL 1: DIQMTQSPSSLSASVGDRVTITCQASQDISNYLNWYQKKPGKAPKLLIYYTSRLHSGVPSRFSGSGSGTDYTFTISSLQPEDIATYFCQQGYSLPYTFGQGTKLEIK
VH 2: B4 VH 2
VL 2: B4 VL 2
notes: as for B4

- EC50 (human GPRC5D [2]): 10.7 nM
- Maximum fluorescence intensity (MFI, 200 nM) (human GPRC5D [2]): 110000 MFI
- TDCC EC50 (pM), MM.1R (human GPRC5D [3]): 6.18 pM
B6: 4D3 × CD3 GPRC5D×CD3 κλ bispecific antibody (bispecific antibody, human IgG4, V domains shown)
VH 1: QVQLVQSGAEVKKPGSSVKVSCKASGYTFTNFPIEWMREAPGQGLEWMGNFHPYNDVTKYNEKFQGRVTLTVDKSSSTVYMELSSLRSEDTAVYYCALITRGYWGQGTLVTVSS
VL 1: DIVMTQSPDSLAVSLGERATINCKSSQSLLYSRNQKNSLAWYQKKPGQPPKLLIYWASTRESGVPDRFSGSGSGTDFTLTISSLQAEDVAVYYCQQYYSYPLTFGQGTKLEIK
VH 2: B4 VH 2
VL 2: B4 VL 2
notes: as for B4

- Maximum fluorescence intensity (MFI, 200 nM) (human GPRC5D [2]): 12800 MFI
- TDCC EC50 (pM), MM.1R (human GPRC5D [3]): 96.5 pM
B7: 15D1 × CD3 GPRC5D×CD3 κλ bispecific antibody (bispecific antibody, human IgG4, V domains shown)
VH 1: QVQLVQSGAEVKKPGSSVKVSCKASGYTFTNYVMHWVKEKPGQGLEWMGYINPYNDGTKYNEKFQGRVTLTSDKSSNTAYMELSSLRSEDTAVYYCARGGVRRYFDYWGQGTLVTVSS
VL 1: DIQMTQSPSSLSASVGDRVTITCRASQDIGSNLNWLQKEPGKAPKRLIYATSSLDSGVPSRFSGSRSGSDYTLTISSLQPEDFATYYCLQYASFPYTFGQGTKLEIK
VH 2: B4 VH 2
VL 2: B4 VL 2
notes: as for B4

- binding result (human GPRC5D [1]): binds
- binding result (Cynomolgus GPRC5D): binds
B8: anti-GPRC5D chimeric antibody 6H1 (antibody, V domains shown)
VH: QAYLQQSGAELVRSGASVKMSCKASGYTFTSYNMHWVKQTPGQGLEWIGYIYPGNGGTNYNQKFKGKATLTADTSSSTAYMQISSLTSEDSAVYFCARGYGYRYWYFDVWGTGTTVTVSS
VL: QIVLTQSPAIMSASPGEKVTMTCSASSSVSYMHWYQQKSGTSPKRWIYDTSKLASGVPARFSGSGSGTSYSLTISSMEAEDAATYYCQQWNSKPPTFGSGTKLEIK

- binding result (human GPRC5D [1]): binds
- binding result (Cynomolgus GPRC5D): binds
B9: anti-GPRC5D chimeric antibody 2E1 (antibody, V domains shown)
VH: QVQLQQPGAELVKPGASVKLSCKASGYTFTRYWMHWVKQRPGQGLDWIGEFNPSNGRINYNEKFKNKATLTIDKSSSTAYMQLSSLTSEDSAVYYCTRGFAYWGQGTLVTVSA
VL: B8 VL with K18R, S28T, M32I, N91T, S92T, K93N, P95W, S99G

- EC50 (read off the curve) (human GPRC5D [1]): ~0.6 nM
- binding result (Cynomolgus GPRC5D): binds
B10: anti-GPRC5D chimeric antibody 4B1 (antibody, V domains shown)
VH: B8 VH with K63N, T112A
VL: B8 VL with A59V, N91S, S92N, K93Y

- binding result (human GPRC5D [1]): binds
- binding result (Cynomolgus GPRC5D): binds
B11: anti-GPRC5D chimeric antibody 2F1 (antibody, V domains shown)
VH: EVLLQQSGPELVKPGTSMKISCKASGYSFTGYTMNWVKQRHGKNLEWIGLINPYNGGTRYNQKFKGRATLTVDKSSSTAYMELLSLTSEDSAVYYCARWALRYGMDYWGQGTSVTVSS
VL: DIVMTQSQKFMSTSVGDRVSVTCKASQNVGTNVAWYQQKPGHSPKALIYSASYRNSGVPDRFTGSGSGTDFTLTISNVQSEDLAEYFCQQYNSYLLTFGGGTKLELK
